{"source": "patent US20240124608A1", "about": "(Johns Hopkins, published 2024)", "binders": {"B1": {"name": "anti-TRBC1 scFv C1 (Jovi-1) (scFv, V domains shown)", "VH": "EVRLQQSGPDLIKPGASVKMSCKASGYTFTGYVMHWVKQRPGQGLEWIGFINPYNDDIQSNERFRGKATLTSDKSSTTAYMELSSLTSEDSAVYYCARGAGYNFDGAYRFFDFWGQGTTLTVSS", "VL": "DVVMTQSPLSLPVSLGDQASISCRSSQRLVHSNGNTYLHWYLQKPGQSPKLLIYRVSNRFPGVPDRFSGSGSGTDFTLKISRVEAEDLGIYFCSQSTHVPYTFGGGTKLEIKR", "notes": "also called αTRBC1 scFv"}, "B2": {"name": "TRBC1-CD3 bispecific antibody (bispecific antibody, V domains shown)", "VL 1": "B1 VL", "VH 1": "B1 VH", "VL 2": "DIQMTQSPSSLSASVGDRVTITCRASQDIRNYLNWYQQKPGKAPKLLIYYTSRLESGVPSRFSGSGSGTDYTLTISSLQPEDFATYYCQQGNTLPWTFGQGTKVEIK", "VH 2": "EVQLVESGGGLVQPGGSLRLSCAASGYSFTGYTMNWVRQAPGKGLEWVALINPYKGVSTYNQKFKDRFTISVDKSKNTAYLQMNSLRAEDTAVYYCARSGYYGDSDWYFDVWGQGTLVTVSS", "notes": "It was nickel purified, so a His tag is implied; also called αC1-CD3; anti-C1-CD3"}, "B3": {"name": "TRBC1-TRBC1 #4 bispecific antibody (bispecific antibody, V domains shown)", "VH": "B1 VH", "VL": "B1 VL", "notes": "A single polypeptide made by linking two anti-TRBC1 scFvs, with G4S and (G4S)3 linkers and a poly-histidine tail; also called anti-C1 #4"}, "B4": {"name": "TRBC1-TRBC1 #3 bispecific antibody (bispecific antibody, V domains shown)", "VH": "B1 VH", "VL": "B1 VL", "notes": "A single polypeptide made by linking two anti-TRBC1 scFvs, with G4S and (G4S)3 linkers and a poly-histidine tail; also called anti-C1 #3"}, "B5": {"name": "anti-CD3 scFv UCHT1.v9 (scFv, V domains shown)", "VH": "B2 VH 2", "VL": "B2 VL 2", "notes": "also called αCD3 scFv"}}, "key": {"[1]": {"biological_target": "TRBC1 polypeptide (form not stated, target of the affinity printed for scFv C1) (UniProt P01850 1-149, limits assumed)", "sequence (P01850 1-149 limits assumed)": "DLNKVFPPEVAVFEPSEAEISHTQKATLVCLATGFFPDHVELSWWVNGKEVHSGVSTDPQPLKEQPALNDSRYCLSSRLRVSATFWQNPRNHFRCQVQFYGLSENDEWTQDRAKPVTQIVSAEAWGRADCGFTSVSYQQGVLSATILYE", "experiment": "not stated; column head 'Affinity' in the table of scFv sequences"}, "[2]": {"biological_target": "T1, TRBC1 (T cell receptor β chain constant region 1) on Jurkat cells and TRBC1^+ healthy human T cells (human, UniProt P01850 1-176)", "T1 construct": "whole, on cells; This is the constant region of the TCR β chain carried by the cell's own rearranged TCR; The rest of the TCR is not specified; also called TRBC1 polypeptide", "T1 sequence (P01850 whole entry)": "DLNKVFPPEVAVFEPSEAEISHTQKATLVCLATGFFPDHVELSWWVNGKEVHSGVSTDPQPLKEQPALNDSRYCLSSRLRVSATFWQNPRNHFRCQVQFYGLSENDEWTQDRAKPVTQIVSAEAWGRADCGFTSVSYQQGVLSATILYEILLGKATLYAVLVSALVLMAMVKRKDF", "experiment": "flow cytometry on Jurkat cells and healthy human T cells"}, "[3]": {"biological_target": "T2, TRBC2 (T cell receptor β chain constant region 2) on HPB-ALL cells (human, UniProt A0A5B9 1-178)", "T2 construct": "whole, on cells; This is the constant region of the TCR β chain carried by the cell's own rearranged TCR; also called TRBC2 polypeptide", "T2 sequence (A0A5B9 whole entry)": "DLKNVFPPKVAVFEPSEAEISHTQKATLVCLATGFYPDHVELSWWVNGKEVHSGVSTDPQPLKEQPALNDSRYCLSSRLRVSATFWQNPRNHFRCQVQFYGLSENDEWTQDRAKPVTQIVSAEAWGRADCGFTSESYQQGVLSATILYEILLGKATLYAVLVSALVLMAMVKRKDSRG", "experiment": "flow cytometry on HPB-ALL cells (express TRBC2)"}, "[4]": {"biological_target": "CD3 polypeptide (form not stated, target of the affinity printed for scFv UCHT1.v9) (UniProt P07766 23-126)", "sequence (P07766 23-126)": "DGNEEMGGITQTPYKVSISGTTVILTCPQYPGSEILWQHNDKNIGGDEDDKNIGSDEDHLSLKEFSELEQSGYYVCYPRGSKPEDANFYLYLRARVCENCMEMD", "experiment": "not stated; column head 'Affinity' in the table of scFv sequences"}}, "data": [{"binder": "B1", "values": [{"measurement": "Kd", "setting": "[1]", "value": 0.4, "unit": "nM"}]}, {"binder": "B2", "values": [{"measurement": "binding result", "setting": "[2]", "value": "binds"}]}, {"binder": "B3", "values": [{"measurement": "binding result", "setting": "[3]", "value": "no binding"}]}, {"binder": "B4", "values": [{"measurement": "binding result", "setting": "[3]", "value": "no binding"}]}, {"binder": "B5", "values": [{"measurement": "Kd", "setting": "[4]", "value": 4.7, "unit": "nM"}]}]}
